Reference: the supplement of paper PMC10899765

Assays:
Settings in all cases: 20 nM; 72 h
MCF10A [1] = experiment: one-nucleolus phenotype percent effect (relative to siNT 0% and siNOL11 100%); higher = more cells with one nucleolus (ribosome biogenesis inhibition)
Method: (§1)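 After 72 h, cells were fixed and stained with Hoechst and anti-fibrillarin, and nucleoli per nucleus were counted with CellProfiler. Values are plate-adjusted percent effect for the one-nucleolus and 5+ nucleoli phenotypes, normalised to siNT (0%) and to the positive controls siNOL11 or siKIF11 (100%), as the mean of biological triplicates. Percent viability is the nuclei count relative to siNT.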

MCF10A [2] = experiment: percent viability (nuclei count relative to siNT); higher = more viable cells
Method: as §1

MCF10A [3] = experiment: 5+ nucleoli phenotype percent effect (relative to siNT 0% and siKIF11 100%); higher = more cells with five or more nucleoli
Method: as §1

| Sequence | one-nucleolus phenotype percent effect (MCF10A [1]) [%] | percent viability (MCF10A [2]) [%] | 5+ nucleoli phenotype percent effect (MCF10A [3]) [%] |
| --- | --- | --- | --- |
| UAGCAAAAACUGCAGUUACUUU [hsa-miR-548p] | -21.8 | 114 | 17.2 |
| AAAAGUAACUGCGGUUUUUGA [hsa-miR-548ak] | -23.5 | 89.9 | 45.4 |
| UAGGGGGCGGCUUGUGGAGUGU [hsa-miR-6805-5p] | 18.2 | 27 | 0.0052 |
| ACCUGAGGUUGUGCAUUUCUAA [hsa-miR-544b] | 20.9 | 45.3 | -17.6 |
| AUCUGUAAGAGAAAGUAAAUGA [hsa-miR-3686] | -0.187 | 48.4 | 21.5 |
| GCAGGGACAGCAAAGGGGUGC [hsa-miR-211-3p] | 9.24 | 38.3 | -20.9 |
| CCUCCCACACCCAAGGCUUGCA [hsa-miR-532-3p] | 5.19 | 38.6 | 23.9 |
| UUCUCUUUCUUUAGCCUUGUGU [hsa-miR-4753-3p] | 27.3 | 22.1 | -14.1 |
| CAAAAACCGGCAAUUACUUUUG [hsa-miR-548ac] | -15.1 | 72.6 | 8.34 |
| UCCUAAAUCUGAAAGUCCAAAA [hsa-miR-5009-3p] | -25.9 | 117 | 46.2 |
| UGUGAUAUCAUGGUUCCUGGGA [hsa-miR-3689b-5p] | 19 | 23.6 | -25.9 |
| ACCUCCUGUGUGCAUGGAUUA [hsa-miR-660-3p] | 16.9 | 37.2 | -17.5 |
| AGUUUUGCAGGUUUGCAUUUCA [hsa-miR-19b-2-5p] | 21.2 | 96.7 | -10.8 |
| ACUCAAAACCCUUCAGUGACUU [hsa-miR-616-5p] | -11.3 | 93.6 | 21.5 |
| UGGUGGGCCGCAGAACAUGUGC [hsa-miR-654-5p] | 20.4 | 31.2 | -8.23 |
| AGCGAGGUUGCCCUUUGUAUAU [hsa-miR-381-5p] | -12.7 | 52.5 | 0.715 |
| ACGGGUUAGGCUCUUGGGAGCU [hsa-miR-125b-1-3p] | 13.6 | 53.9 | 15.9 |
| AGCUGUACCUGAAACCAAGCA [hsa-miR-4718] | 9.98 | 77.5 | -2.07 |
| GAACUCACCCUCUGCUCCCAG [hsa-miR-6750-3p] | -8.73 | 99 | 29.7 |
| ACACAUGGGUGGCUGUGGCCU [hsa-miR-4717-3p] | -12.1 | 66.4 | 24.6 |

| Sequence | one-nucleolus phenotype percent effect (MCF10A [1]) [%] | percent viability (MCF10A [2]) [%] | 5+ nucleoli phenotype percent effect (MCF10A [3]) [%] |
| --- | --- | --- | --- |
| GGCUACAACACAGGACCCGGGC [hsa-miR-187-5p] | -18.2 | 136 | 15.6 |
| GCUGAACUGGGCUGAGCUGGGC [hsa-miR-4539] | -1.34 | 87 | -5.15 |
| CUGCAGCCACUUGGGGAACUGGU [hsa-miR-7156-3p] | 8.88 | 57.4 | -7.7 |
| UUCUCAAGAGGGAGGCAAUCAU [hsa-miR-514b-5p] | -22.9 | 43.1 | 36.5 |
| AAUCGGACCCAUUUAAACCGGAG [hsa-miR-5188] | -9.59 | 90.7 | 10.2 |
| CAGUUAUCACAGUGCUGAUGCU [hsa-miR-101-5p] | 8.44 | 33.9 | -23.5 |
| UGUGACUGCAUUAUGAAAAUUCU [hsa-miR-3118] | 20.9 | 26.7 | 5.27 |
| UGAGCACCACACAGGCCGGGCGC [hsa-miR-3663-3p] | -6.6 | 58.5 | 12.4 |
| UGAGGGAGGAGGUUGGGUA [hsa-miR-6133] | 1.81 | 17.2 | -0.793 |
| GGUUCCCUCUCCAAAUGUGUCU [hsa-miR-642b-5p] | 11.8 | 44.4 | 21.2 |
| UCCCUGAGCAAAGCCAC [hsa-miR-4319] | -1.9 | 59.9 | 9.87 |
| UGUGCAGCAGGCCAACCGAGA [hsa-miR-3944-5p] | -7.88 | 69 | 4.63 |
| CUUCUGAUCAAGAUUUGUGGUG [hsa-miR-4762-3p] | 18.9 | 30.5 | -38.7 |
| UCUGGCUGUGCUGUAAUGCAG [hsa-miR-6504-5p] | 6.53 | 54.2 | -5.01 |
| AAAAUGGUUCCCUUUAGAGUGU [hsa-miR-522-3p] | -12.4 | 66.3 | 28.6 |
| UUGUGGGUGGGCAGAAGUCUGU [hsa-miR-6759-5p] | 49.5 | 21.7 | -37.5 |
| CCAGGCUCUGCAGUGGGA [hsa-miR-3155b] | -8.6 | 65.5 | 29.5 |
| AAAAGUAAUCGCGGUUUUUGUC [hsa-miR-548h-5p] | -19.1 | 101 | 35.8 |
| UUAAUGCUAAUCGUGAUAGGGGU [hsa-miR-155-5p] | 8.74 | 38.2 | -38.5 |
| UCUCUCGGCUCCUCGCGGCUC [hsa-miR-3615] | -7.12 | 69.8 | 27.8 |

| Sequence | one-nucleolus phenotype percent effect (MCF10A [1]) [%] | percent viability (MCF10A [2]) [%] | 5+ nucleoli phenotype percent effect (MCF10A [3]) [%] |
| --- | --- | --- | --- |
| AGUUCUUCAGUGGCAAGCUUUA [hsa-miR-22-5p] | 3.93 | 75.4 | 24 |
| UUGUGCUUGAUCUAACCAUGU [hsa-miR-218-5p] | -8.63 | 151 | 35.8 |
| GCUAAGGAAGUCCUGUGCUCAG [hsa-miR-4521] | -19.3 | 83.7 | 34.9 |
| CAGGGCAGGGAAGGUGGGAGAG [hsa-miR-6879-5p] | -11.1 | 67.3 | 36.6 |
| AGGUUCUGUGAUACACUCCGACU [hsa-miR-152-5p] | 65.8 | 22 | -38.1 |
| UGAGGUAGUAGUUUGUGCUGUU [hsa-let-7i-5p] | -11.8 | 16.5 | 23.9 |
| ACAUUGCCAGGGAGUUU [hsa-miR-4317] | -2.43 | 45.1 | -11 |
| GGCGGCGGCGGAGGCGGGGG [hsa-miR-3960] | 26.8 | 47.6 | -17.5 |
| UAAAAUUUGCAUCCAGGA [hsa-miR-4282] | -28.5 | 66 | 22.1 |
| CACACAAGUGGCCCCCAACACU [hsa-miR-4731-3p] | 8.2 | 29.9 | -12.1 |
| CACCGACUCUGUCUCCUGCAG [hsa-miR-6510-3p] | 11.7 | 69.9 | -12.7 |
| UCUGAGAGAGCUCGAUGGCAG [hsa-miR-6761-5p] | -17.3 | 56.8 | 9.71 |
| CCCGGACAGGCGUUCGUGCGACGU [hsa-miR-3687] | -20.6 | 86.1 | 26.3 |
| UGACACGGAGGGUGGCUUGGGAA [hsa-miR-4462] | -18.7 | 82.7 | 14.9 |
| CCGGUCCCAGGAGAACCUGCAGA [hsa-miR-4746-5p] | 11.9 | 45.1 | 8.72 |
| UCUCGCAUCAGGAGGCAAGG [hsa-miR-6872-5p] | -13 | 56 | 24.9 |
| CACCUCUCCUGGCAUCGCCCC [hsa-miR-6800-3p] | -20.1 | 128 | 21.6 |
| AGGGAGGGACGGGGGCUGUGC [hsa-miR-149-3p] | 42.9 | 15.1 | -16.6 |
| AGCGUGGGAUGUCCAUGAAGUCAG [hsa-miR-6853-5p] | -26.6 | 71.7 | 90.6 |
